The target of assay [1] is T1, Negative Control Peptibody 4883 (Homo sapiens (Human), UniProt P0DOX5 223-449 = IgG part). Briefly: ELISA on conditioned medium with C-terminal hAng-2 (aa 255-495, C-terminal 6xHis); O.D. 370; pCDNA3 vector-control medium as blank. Here is the method: (§1) The binding epitope of anti-Ang-2 antibodies and peptibodies was determined by their ability to bind the three versions of human hAng-2 by ELISA according to the following protocol: a high-binding 96-well assay plate was coated with 100 μl of conditioned media per well, and incubated at 37° C. for 1 hour. Conditioned media was aspirated, and the plate was blocked with 200 μl per well of 5% BSA in PBS at room temperature for 1 hour. The blocking solution was then aspirated. […] The wells were washed 4 times with 200 μl of 0.1% Tween in PBS. 100 μl per well of HRP-conjugated goat anti-human IgG or goat anti-mouse IgG were added, and incubated at room temperature for 45 minutes. The wells were then washed with 200 μl of 0.1% Tween in PBS 4 times. 100 μl per well of TMB substrate was then added. O.D. was read at 370 nm.

In assay [2] the target is T2, 2xCon4 (C) 1K.
T2 construct: also called 2×Con4-C; 2×CON4-C (Pb5714)
The assay is described as follows: KinExA solution competition, 30 pM 2xCON4-C; soluble huAng-2 varied, competing with huAng-2 on beads. The text has this:
(§2) Reacti-Gel 6× beads (Pierce, Rockford, Ill.) were pre-coated with huAng-2 and blocked with BSA. […] The amount of the bead-bound peptibody was quantified by fluorescent (Cy5) labeled goat anti-human-Fc antibody (Jackson Immuno Research, West Grove, Pa.). The binding signal is proportional to the concentration of free peptibody at equilibrium.
(§3) The dissociation equilibrium constant (KD) was obtained from nonlinear regression of the competition curves using a dual-curve one-site homogeneous binding model (KinE×™ software).
For orientation: A kinetic exclusion assay measures how much of one partner remains free in solution.

In assay [3] the target is T2, 2xCon4 (C) 1K. Briefly: KinExA solution competition, 10 pM 2xCON4-C; soluble huAng-2 varied, competing with huAng-2 on beads.
From the text: as §2, §3

A further assay deals with T3, Con4 (C) (Homo sapiens (Human), UniProt P0DOX5 223-449 = IgG part).
T3 construct: also called TN8-Con4-C
The assay is described as follows: ELISA on conditioned medium with N-terminal hAng-2 (aa 1-254, C-terminal 6xHis); O.D. 370; pCDNA3 vector-control medium as blank. Here is the method:
as §1
In general terms: In an ELISA, binding on a coated surface is turned into a signal by an enzyme label.

Assay [4] concerns the target T4, Tie-2-Fc (R&D Systems, catalog number 313-TI) (human, UniProt Q02763 23-748).
T4 construct: extracellular domain; bought; also called hTie2-Fc; Recombinant Human Tie-2-Fc Chimera; not shown: Fc of the bought chimera
Described as above. The procedure: as §1

For assay [5], the target named is T1, Negative Control Peptibody 4883. Described as above. Here is the method: as §1

B1: C-term of hAng2 (aa 255-495) (ligand)
chain: VNNLLTMMSTSNSKDPTVAKEEQISFRDCAEVFKSGHTTNGIYTLTFPNSTEEIKAYCDMEAGGGGWTIIQRREDGSVDFQRTWKEYKVGFGNPSGEYWLGNEFVSQLTNQQRYVLKIHLKDWEGNEAYSLYEHFYLSSEELNYRIHLKGLTGTAGKISSISQPGNDFSTKDGDNDKCICKCSQMLTGGWWFDACGPSNLNGMYYPQRQNTNKFNGIKWYYWKGSGYSLKATTMMIRPADFHHHHHH
notes: also called C-terminal (amino acids 255-495) human Ang-2
Regarding B1, in assay [1], the binding result is listed as “no binding (tested: 1 µg/ml (single concentration))”.

B2: human angiopoietin-2 (Ang-2) (ligand, UniProt O15123 19-496, looked up)
chain: YNNFRKSMDSIGKKQYQVQHGSCSYTFLLPEMDNCRSSSSPYVSNAVQRDAPLEYDDSVQRLQVLENIMENNTQWLMKLENYIQDNMKKEMVEIQQNAVQNQTAVMIEIGTNLLNQTAEQTRKLTDVEAQVLNQTTRLELQLLEHSLSTNKLEKQILDQTSEINKLQDKNSFLEKKVLAMEDKHIIQLQSIKEEKDQLQVLVSKQNSIIEELEKKIVTATVNNSVLQKQQHDLMETVNNLLTMMSTSNSAKDPTVAKEEQISFRDCAEVFKSGHTTNGIYTLTFPNSTEEIKAYCDMEAGGGGWTIIQRREDGSVDFQRTWKEYKVGFGNPSGEYWLGNEFVSQLTNQQRYVLKIHLKDWEGNEAYSLYEHFYLSSEELNYRIHLKGLTGTAGKISSISQPGNDFSTKDGDNDKCICKCSQMLTGGWWFDACGPSNLNGMYYPQRQNTNKFNGIKWYYWKGSGYSLKATTMMIRPADF
notes: Several preparations are used (R&D Systems protein, biotinylated R&D protein, 293T conditioned media); also called hAng-2; huAng-2
Turning to B2, the “IC50 (read off the curve)” value with 2xCon4 (C) 1K [2] was ~0.04 nM; with 2xCon4 (C) 1K [3], ~0.01 nM.

B3: N-term hAng2 (aa 1-254) (ligand)
chain: YNNFRKSMDSIGKKQYQVQHGSCSYTFLLPEMDNCRSSSSPYVSNAVQRDAPLEYDDSVQRLQVLENIMENNTQWLMKLENYIQDNMKKEMVEIQQNAVQNQTAVMIEIGTNLLNQTAEQTRKLTDVEAQVLNQTTRLELQLLEHSLSTNKLEKQILDQTSEINKLQDKNSFLEKKVLAMEDKHIIQLQSIKEEKDQLQVLVSKQNSIIEELEKKIVTATVNNSVLQKQQHDLMETHHHHHH
notes: also called N-terminal (amino acids 1-254) human Ang-2
With B3, the binding result (in the assay with Con4 (C); in assay [4]; in assay [5]) was “no binding (tested: 1 µg/ml (single concentration))” in each case.
